According to paper PMC12199146, “Unique conformational dynamics and protein recognition of A-to-I hyper-edited dsRNA”:

T1: Endonuclease V (EcEndoV), wild-type (Escherichia coli, UniProt P68739 1-223)
T1 sequence: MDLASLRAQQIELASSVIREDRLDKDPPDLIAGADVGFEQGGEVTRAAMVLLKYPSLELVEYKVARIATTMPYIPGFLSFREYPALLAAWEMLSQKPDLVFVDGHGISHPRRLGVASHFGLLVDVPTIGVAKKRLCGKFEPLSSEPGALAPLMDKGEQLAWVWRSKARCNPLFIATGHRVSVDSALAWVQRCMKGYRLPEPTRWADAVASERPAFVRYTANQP

B1: A-RNA (non-edited 20-mer dsRNA) (dsRNA)
RNA 1: ACUGGACAAAUACUCCGAGG
RNA 2: CCUCGGAGUAUUUGUCCAGU

How the values were obtained:
[1] = biological target: T1, Endonuclease V (EcEndoV), wild-type; experiment: NMR imino line broadening; 5 mM Mg2+, 150 mM NaCl, 288 K, 1:1; backbone interaction, non-specific; EMSA: 25 mM sodium phosphate pH 6.5, 50-300 mM NaCl (500 mM in Fig. S17E), 1 mM DTT, 5 mM MgCl2, 30 min on ice, 2 pmol RNA in 10 ul, 12% native gel in TBE at room temperature; NMR: 25 mM sodium phosphate pH 6.5, 150 mM NaCl, 5 mM MgCl2, 1 mM DTT, 5% D2O, 50 uM RNA, 288 K; conditions: protein: recombinant; tags: N-terminal His-tag removed with TEV protease; 20-mer duplex, residues 1-40
[2] = biological target: T1, Endonuclease V (EcEndoV), wild-type; experiment: EMSA; EMSA: 25 mM sodium phosphate pH 6.5, 50-300 mM NaCl (500 mM in Fig. S17E), 1 mM DTT, 5 mM MgCl2, 30 min on ice, 2 pmol RNA in 10 ul, 12% native gel in TBE at room temperature; NMR: 25 mM sodium phosphate pH 6.5, 150 mM NaCl, 5 mM MgCl2, 1 mM DTT, 5% D2O, 50 uM RNA, 288 K; conditions: protein: recombinant; tags: N-terminal His-tag removed with TEV protease; single strand

Binder	binding result [1]	binding result [2]
B1	binds	
CCUCGGAGUAUUUGUCCAGU (ssRNA) [ssRNA substrate(s) without inosine]		no binding
